Results on 4 molecules are retold here after article PMC12319226 (Frontiers in Bioinformatics, 2025).

To fix the notation:
B1: chimeric antibody h12C1 (antibody, V domains shown)
VH: QVQLQESGPELVKPGASVKISCKASGYSFSDYNMSWVKQSNGKSLEWIGIIDPKYGTINYNQKFKGKATLTVDQASSTAYMQLNSLTSEDSAVYYCVRDYYGSSYFDYWGQGTTLTVSS
VL: DIVLTQSPSSIYASLGERVTLTCKASQDIHNYLNWFQQKPGKSPKTLIYRANRLVDGVPSRFSGGGSGQDYSLTISSLEFEDIGIYYCLQYDEFPPTFGGGTRLEIK
notes: also called humanized 12C1; source: Expi293, purified (MabSelect SuRe, SEC); copies: 2 + 2
B2: chimeric antibody hJAR5 (antibody, V domains shown)
VH: QVQMQQPGAELVKPGASVKLSCKASGYTFISYWMHWVKQRPGRGLEWIGRIAPDTGIIYYNEKFKNKATLTVDTPSSTAYMQLNSLTSEDSAVYYCARYLKYDGSTYRFDYWGQGTTLTVSS
VL: DIVMTQAAPSVPVTPGESVSISCRSSKSLLHSNGNTYLFWFLQRPGQSPQLLIYRMSNLASGVPDRFSGSGSGTSFTLRISRVEAEDVGVYYCMQHLEYPYTFGGGTKLEIK
notes: also called hJAR5-2; humanized JAR5; source: Expi293, purified (MabSelect SuRe, SEC); copies: 2 + 2
B3: mAb 4B3 (human) (antibody, V domains shown)
VH: QVQLVQSGGGLVKPGGSLRLSCAASGFPFSSYYMSWIRQAPGKGLEWVSDINNSGNVKEYADFVKGRLTISRDNVKNSMYLHMNSLRVEDTAVYYCARNRGRFDVWGQGTLVTVSA
VL: EIVMTQSPGTLSLSPGETATLSCRASQMISSPFLAWYQQRRGQAPRLLIYGASTRATDTPDRFRGSGSGTDFILTISRLEPEDFAVYYCQYYDDSPFTFGQGTKLEIK
notes: also called 4B3-2; source: Expi293, purified (MabSelect SuRe, SEC); copies: 2 + 2
B4: mAb 1E6 (human) (antibody, V domains shown)
VH: EVQLVQSGAEVKKPGSSVKVSCKASGGTVIDYPITWVRQAPGQGLEWVGGFVPLFRTSNYGQKFQGRVTITADKSTSTASMELNSLTSEDTAIYYCARGDTAMGPFDYWGQGTLVTVSS
VL: SYVLTQPPSLSVAPGKTATLTCGGNNIAGKTVHWYQQRPGQAPVLVISYDSDRPSGIPERFSGSNSANTATLTISRVEAGDEADYYCQVWDRNSDHWVFGGGTKLTVL
notes: source: Expi293, purified (MabSelect SuRe, SEC); copies: 2 + 2

Substitutions are numbered along the chain they refer to. Values joined by “and” are separate entries in the source; they are usually repeats but may differ in a detail not shown here. Identical values can stand only once.

The target in the first experiment is T1, fHbp m001927 (Neisseria meningitidis; fHbp …, chimera).
T1 chain: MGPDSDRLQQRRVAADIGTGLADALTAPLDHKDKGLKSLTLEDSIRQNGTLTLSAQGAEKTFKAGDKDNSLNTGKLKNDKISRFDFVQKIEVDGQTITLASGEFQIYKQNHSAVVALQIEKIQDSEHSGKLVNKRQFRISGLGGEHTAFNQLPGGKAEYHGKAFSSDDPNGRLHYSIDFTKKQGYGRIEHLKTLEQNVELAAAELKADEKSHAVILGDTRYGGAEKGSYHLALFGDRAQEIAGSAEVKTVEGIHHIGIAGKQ
The experiment is described as follows: BLI. To be noted: both partners purified.
Regarding B1, the equilibrium dissociation constant (Kd) came out at 0.38 nM, the koff was 7.94e-05 s⁻¹ and the on-rate constant (kon) stood at 209200 ± 1710 M⁻¹ s⁻¹.

The molecule B2 had a Kd of 0.824 nM.

For B3, the affinity, expressed as Kd, was 3.64 nM; the koff is 0.000943 s⁻¹; the on-rate constant (kon) was 259300 ± 1550 M⁻¹ s⁻¹.

On to B4, for which binding was put at a Kd of 0.293 nM, the koff turned out to be 0.000118 s⁻¹ and the association rate constant (kon) is 402600 ± 1680 M⁻¹ s⁻¹.

The target of the next experiment is T2, fHbp m002420 (Neisseria meningitidis, designed fHbp …, chimera).
T2 chain: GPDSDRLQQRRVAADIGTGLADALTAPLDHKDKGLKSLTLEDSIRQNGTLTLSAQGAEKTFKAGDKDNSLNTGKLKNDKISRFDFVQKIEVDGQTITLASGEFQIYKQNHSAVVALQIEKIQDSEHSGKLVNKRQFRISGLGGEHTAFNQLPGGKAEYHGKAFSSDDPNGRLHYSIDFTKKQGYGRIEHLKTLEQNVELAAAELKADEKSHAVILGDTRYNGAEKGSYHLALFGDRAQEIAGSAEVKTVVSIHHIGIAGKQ
In words: BLI. Conditions: both partners purified.
Consider B1, for which binding was put at a Kd of 70.4 nM, the koff was determined as 0.02143 ± 0.00013 s⁻¹ and the kon was 304000 ± 6160 M⁻¹ s⁻¹.

In turn, B2 returned a Kd of 0.256 nM.

As for B3, the Kd came out at 2.01 nM, the dissociation rate constant (koff) is 0.000887 s⁻¹ and the kon stood at 441000 ± 4480 M⁻¹ s⁻¹.

In turn, B4 displayed a Kd of 0.285 nM, a koff of 0.000154 s⁻¹ and an on-rate constant (kon) of 542300 ± 2290 M⁻¹ s⁻¹.

For the next experiment, the target named is T3, fHbp m001929 (Neisseria meningitidis; fHbp …, chimera).
T3 chain: T1 chain with G252A
The experiment is described as follows: BLI. Conditions: both partners purified.
Regarding B1, binding was put at a Kd of 45.9 nM, the koff stood at 0.00802 s⁻¹ and the on-rate constant (kon) was 175000 ± 4560 M⁻¹ s⁻¹.

B2: the equilibrium dissociation constant (Kd) was found to be 0.347 nM.

In turn, B3 returned a Kd of 2.63 nM, a koff of 0.000635 s⁻¹ and a kon of 242000 ± 2590 M⁻¹ s⁻¹.

B4: binding was put at a Kd of 0.235 nM, the koff was determined as 9.11e-05 s⁻¹ and the kon turned out to be 387500 ± 2190 M⁻¹ s⁻¹.

The next experiment addresses T4, fHbp m002421 (Neisseria meningitidis, designed fHbp …, point mutant).
T4 chain: T2 chain with S251A
The experiment is described as follows: BLI. Conditions: both partners purified.
The molecule B1 yielded a Kd of 33.8 nM, a koff of 0.00845 s⁻¹ and a kon of 250000 ± 2560 M⁻¹ s⁻¹.

The molecule B2 came in with a dissociation constant Kd of 0.193 nM.

On to B3, for which binding was characterised by a dissociation constant (Kd) of 1.25 nM, the koff is 0.00101 s⁻¹ and the on-rate constant (kon) came out at 803900 ± 3510 M⁻¹ s⁻¹.

B4 displayed a Kd of 0.131 nM, a koff of 5.56e-05 s⁻¹ and a kon of 424400 ± 3050 M⁻¹ s⁻¹.

Another experiment concerns the target T5, fHbp m002413 (Neisseria meningitidis, designed fHbp …, chimera).
T5 chain: T2 chain with V250E, S251G
The experiment is described as follows: BLI. To be noted: both partners purified.
For the molecule B1, the Kd came out at 1.1 nM, the koff is 0.000237 s⁻¹ and the kon was 214700 ± 1140 M⁻¹ s⁻¹.

In the case of B2, the Kd came to 1.09 nM.

As to B3, the Kd is 4.57 nM and 3.74 nM; the koff is 0.00112 s⁻¹ and 0.00115 s⁻¹; the kon was 245000 M⁻¹ s⁻¹ and 307000 M⁻¹ s⁻¹.

B4: the Kd is 0.66 nM, the koff amounted to 0.000271 s⁻¹ and the kon was found to be 410700 ± 2050 M⁻¹ s⁻¹.

For a further experiment, the target named is T6, fHbp m002415 (Neisseria meningitidis, designed fHbp …, chimera).
T6 chain: T2 chain with V250E, S251A
In words: BLI. To be noted: both partners purified.
B1 gave a Kd of 66.7 nM, a koff of 0.00939 s⁻¹ and a kon of 141000 ± 2240 M⁻¹ s⁻¹.

The molecule B2 displayed a dissociation constant (Kd) of 0.664 nM.

For the molecule B3, the dissociation constant (Kd) was determined as 3.78 nM, the koff worked out at 0.00101 s⁻¹ and the kon is 267700 ± 1540 M⁻¹ s⁻¹.

In turn, B4 yielded a Kd of 0.831 nM, a koff of 0.000302 s⁻¹ and a kon of 363300 ± 1200 M⁻¹ s⁻¹.

The target in a further experiment is T7, fHbp m001691 (Neisseria meningitidis; fHbp …, point mutant).
T7 chain: T1 chain with Y221L, G222N, E251V
The experiment is described as follows: BLI. To be noted: both partners purified.
On to B1, for which the Kd worked out at 34 nM, the koff came to 0.00857 s⁻¹ and the kon was 252000 ± 2680 M⁻¹ s⁻¹.

Molecule B2 showed a Kd of 0.838 nM.

The molecule B3 registered a dissociation constant (Kd) of 3.1 nM, a koff of 0.000731 s⁻¹ and a kon of 235300 ± 1280 M⁻¹ s⁻¹.

Regarding B4, the affinity, expressed as Kd, was 1.01 nM; the koff amounted to 0.000364 s⁻¹; the kon was determined as 361600 ± 1550 M⁻¹ s⁻¹.

A further experiment deals with T8, fHbp m002389 (Neisseria meningitidis; fHbp …, chimera).
T8 chain: T1 chain with G222N, T249S, E251N
The experiment is described as follows: BLI. To be noted: both partners purified.
Molecule B1 displayed a Kd of 1.16 nM, a koff of 0.000257 s⁻¹ and an association rate constant (kon) of 220700 ± 1060 M⁻¹ s⁻¹.

B2 yielded a Kd of 0.772 nM.

With B3, the equilibrium dissociation constant (Kd) was 4.01 nM and 3.22 nM; the koff is 0.000912 s⁻¹ and 0.00101 s⁻¹; the kon was 227000 M⁻¹ s⁻¹ and 315000 M⁻¹ s⁻¹.

For B4, binding was put at a Kd of 0.818 nM, the koff turned out to be 0.000272 s⁻¹ and the kon was 332200 ± 1430 M⁻¹ s⁻¹.

The next experiment deals with T9, fHbp m001932 (Neisseria meningitidis; fHbp …, chimera).
T9 chain: T1 chain with E251N, G252A
The experiment is described as follows: BLI. Conditions: both partners purified.
Take B1: the Kd came to 35.2 nM, the koff was determined as 0.0057 s⁻¹ and the kon was 161900 ± 1160 M⁻¹ s⁻¹.

Regarding B2, the Kd is 3.73 nM.

B3 gave a Kd of 0.814 nM, a koff of 0.000321 s⁻¹ and a kon of 394600 ± 1740 M⁻¹ s⁻¹.

With B4, binding was put at a Kd of 0.303 nM, the koff came to 0.000105 s⁻¹ and the kon turned out to be 347000 ± 1890 M⁻¹ s⁻¹.
